Measured values taken from publication PMC7496768, “Understanding Substrate Selectivity of Phoslactomycin Polyketide Synthase by Using Reconstituted in Vitro Systems” (Chembiochem, 2020).

Assays:
[1] = test system: T1, CC(C)(COP(=O)(O)OP(=O)(O)OC[C@H]1O[C@@H](n2cnc3c(N)ncnc32)[C@H](O)[C@@H]1OP(=O)(O)O)[C@@H](O)C(=O)NCCC(=O)NCCSC(=O)CC(=O)O; assay: purified protein, by the assay type; set-up: SucC/SucD-coupled CoA-SH release assay, NADH absorbance 340 nm, apparent KM for transacylation to ACP; conditions: pH 7.4; 30.0 °C
T1 construct: KS-AT didomain of PnB first module (Pn PKS module 2), recombinant, purified
Description: (§1) Acyltransferase steady state kinetic assay. The assay buffer (200 mM Tris, glycerol 5%v/v, 20 mM MgCl2, pH 7.4) was used to set up all other solutions for this assay. Four master mixes (MM1 to MM4) in 4x concentration were prepared. For MM1 containing the KS-AT proteins (KS-AT or KS-ATS->A mutants), the enzymes were adjusted to 2 µM (for transacylation) or to 4 µM (for hydrolysis) with assay buffer additionally containing 1 mM DTT and 0.1 mg/mL BSA. For MM2 highly pure and concentrated ACP were adjusted to 1600 µM concentration with the assay buffer. Substrate acyl-CoA containing MM3 was prepared with the assay buffer in varying substrate concentrations ranging from (4x concentration indicated here) 1 µM to 1 mM. MM4 contained 1.6 mM NADH, 20 mM ATP, 30 mM succinate, 10 mM phosphoenolpyruvate (stock solutions should be resuspended in assay buffer, or Tris 200 mM, pH 7.4). First, these compounds were mixed and assay buffer was added, leaving volume for Pyruvate Kinase/Lactic Dehydrogenase (PK/LDH), SucC and SucD. After mixing of the compounds, the enzymes were added to MM4 like following: 0.06 mM SucC, 0.06 mM SucD and 20% v/v of PK/LDH (Sigma-Aldrich) (40 µL PK/LDH for 200 µL MM4). To measure transacylation 25 µL MM3, 25 µL MM4, 25 µL MM2 were mixed and incubated 30 °C for one minute. The reaction was started using 25 µL MM1. To measure hydrolysis 25 µL MM3, 25 µL MM4, 25 µL assay buffer were mixed, incubated at 30 °C for one minute. The reaction was started with 25 µL MM1. In both cases after starting the reaction, the mixture was immediately transferred into a 1 cm quartz cuvette, preheated to 30 °C and the absorption was monitored at 340 nm with a Cary 60 UV vis (Agilent technologies). The reactions were measured in three to four technical replicates. Simultaneous to 16 Scheme S1: Steady state kinetic assay, relying on purified proteins. KS-AT didomains and standalone ACPs are used. Upon covalent binding of the acyl-residue to the AT, CoA-SH is released. With no ACP acceptor available, the acyl-residue is subsequently hydrolyzed by nucleophilic attack of water and the AT can bind a new acyl-residue. If holo-ACP is available, the acyl-residue is transferred and the AT can bind a new acyl-residue. Free CoA-SH is converted to succinyl-CoA by E. coli SucC/SucD. In this reaction ADP is produced, which can be used by pyruvate kinase/lactic dehydrogenase (PK/LDH) under NADH consumption. For Michaelis Menten plots with data collected with this assay refer to Figure S6. With the SucC/SucD‐based assay we determined kinetic parameters of PnB_KS‐AT1, PnB_KS‐AT2, PnC_KS‐AT and PnD_KS‐AT for hydrolysis and transacylation (Table S3, Figure S7). As negative control AT catalytic knockouts were used. […] These measurements were independently confirmed by mass spectrometric analysis of acylated ACPs, in which we exclusively detected malonyl‐ACP formation (Tables S1 and S4). […] K M between 4 μM to 11 μM. Rates for transacylation were between 10‐ to 35‐ fold higher (app. k cat of 28 min^−1–140 min^−1) at 2.5 to 7.7 fold higher catalytic efficiency (Table S3).

[2] = test system: T1, CC(C)(COP(=O)(O)OP(=O)(O)OC[C@H]1O[C@@H](n2cnc3c(N)ncnc32)[C@H](O)[C@@H]1OP(=O)(O)O)[C@@H](O)C(=O)NCCC(=O)NCCSC(=O)CC(=O)O; assay: SucC/SucD - pyruvate kinase/lactate dehydrogenase coupled assay of CoA release; format: biochemical, Streptomyces platensis; conditions: hydrolysis
[3] = test system: T2, CC(C)(COP(=O)(O)OP(=O)(O)OC[C@H]1O[C@@H](n2cnc3c(N)ncnc32)[C@H](O)[C@@H]1OP(=O)(O)O)[C@@H](O)C(=O)NCCC(=O)NCCSC(=O)CC(=O)O; assay: purified protein, by the assay type; set-up: SucC/SucD-coupled CoA-SH release assay, NADH absorbance 340 nm, apparent KM for transacylation to ACP; conditions: pH 7.4; 30.0 °C
T2 construct: KS-AT didomain of PnD, recombinant, purified
Description: as §1

[4] = test system: T2, CC(C)(COP(=O)(O)OP(=O)(O)OC[C@H]1O[C@@H](n2cnc3c(N)ncnc32)[C@H](O)[C@@H]1OP(=O)(O)O)[C@@H](O)C(=O)NCCC(=O)NCCSC(=O)CC(=O)O; assay: SucC/SucD - pyruvate kinase/lactate dehydrogenase coupled assay of CoA release; format: biochemical, Streptomyces platensis; conditions: hydrolysis
[5] = test system: T3, CCCC[C@@H](C(=O)O)C(=O)SCCNC(=O)CCNC(=O)[C@H](O)C(C)(C)COP(=O)(O)OP(=O)(O)OC[C@H]1O[C@@H](n2cnc3c(N)ncnc32)[C@H](O)[C@@H]1OP(=O)(O)O; assay: as above; format: biochemical, Streptomyces platensis; conditions: hydrolysis
T3 construct: ketosynthase-acyltransferase (KS-AT) didomain of PnC, recombinant, purified
Text: (§2) SucC/SucD - pyruvate kinase/lactate dehydrogenase coupled assay of CoA release on PnC_KS-AT

[6] = test system: T4, CC(C)(COP(=O)(O)OP(=O)(O)OC[C@H]1O[C@@H](n2cnc3c(N)ncnc32)[C@H](O)[C@@H]1OP(=O)(O)O)[C@@H](O)C(=O)NCCC(=O)NCCSC(=O)CC(=O)O; assay: as above; format: biochemical, Streptomyces platensis; conditions: hydrolysis
T4 construct: ketosynthase-acyltransferase (KS-AT) didomain of PnC, recombinant, purified
Text: as §2

[7] = test system: T5, C[C@@H](C(=O)O)C(=O)SCCNC(=O)CCNC(=O)[C@H](O)C(C)(C)COP(=O)(O)OP(=O)(O)OC[C@H]1O[C@@H](n2cnc3c(N)ncnc32)[C@H](O)[C@@H]1OP(=O)(O)O; assay: as above; format: biochemical, Streptomyces platensis; conditions: hydrolysis
T5 construct: ketosynthase-acyltransferase (KS-AT) didomain of PnC, recombinant, purified
Text: as §2

[8] = test system: T6, CC[C@@H](C(=O)O)C(=O)SCCNC(=O)CCNC(=O)[C@H](O)C(C)(C)COP(=O)(O)OP(=O)(O)OC[C@H]1O[C@@H](n2cnc3c(N)ncnc32)[C@H](O)[C@@H]1OP(=O)(O)O; assay: as above; format: biochemical, Streptomyces platensis; conditions: hydrolysis
T6 construct: ketosynthase-acyltransferase (KS-AT) didomain of PnC, recombinant, purified
Text: as §2

[9] = test system: T7, CC(C)CC[C@@H](C(=O)O)C(=O)SCCNC(=O)CCNC(=O)[C@H](O)C(C)(C)COP(=O)(O)OP(=O)(O)OC[C@H]1O[C@@H](n2cnc3c(N)ncnc32)[C@H](O)[C@@H]1OP(=O)(O)O; assay: as above; format: biochemical, Streptomyces platensis; conditions: hydrolysis
T7 construct: ketosynthase-acyltransferase (KS-AT) didomain of PnC, recombinant, purified
Text: as §2

[10] = test system: T8, CCCCCC[C@@H](C(=O)O)C(=O)SCCNC(=O)CCNC(=O)[C@H](O)C(C)(C)COP(=O)(O)OP(=O)(O)OC[C@H]1O[C@@H](n2cnc3c(N)ncnc32)[C@H](O)[C@@H]1OP(=O)(O)O; assay: as above; format: biochemical, Streptomyces platensis; conditions: hydrolysis
T8 construct: ketosynthase-acyltransferase (KS-AT) didomain of PnC, recombinant, purified
Text: as §2

[11] = test system: T9, CC(C)(COP(=O)(O)OP(=O)(O)OC[C@H]1O[C@@H](n2cnc3c(N)ncnc32)[C@H](O)[C@@H]1OP(=O)(O)O)[C@@H](O)C(=O)NCCC(=O)NCCSC(=O)CC(=O)O; assay: purified protein, by the assay type; set-up: SucC/SucD-coupled CoA-SH release assay, NADH absorbance 340 nm, apparent KM for transacylation to ACP; conditions: pH 7.4; 30.0 °C
T9 construct: KS-AT didomain of PnB second module (Pn PKS module 3), recombinant, purified
Description: as §1

[12] = test system: T9, CC(C)(COP(=O)(O)OP(=O)(O)OC[C@H]1O[C@@H](n2cnc3c(N)ncnc32)[C@H](O)[C@@H]1OP(=O)(O)O)[C@@H](O)C(=O)NCCC(=O)NCCSC(=O)CC(=O)O; assay: SucC/SucD - pyruvate kinase/lactate dehydrogenase coupled assay of CoA release; format: biochemical, Streptomyces platensis; conditions: hydrolysis

PnB_KS-AT1 (Streptomyces platensis) gave a Km [1] of 27 ± 2.6 µM, a kcat [1] of 2.33 ± 0.0717 s⁻¹ and a kcat/Km [1] of 86700 M⁻¹ s⁻¹. For the same substance, the Km [2] was 4.3 ± 0.8 µM and the kcat [2] was 0.067 ± 0.0025 s⁻¹.
PnD_KS-AT (Streptomyces platensis) was tested, and the Km [3] was 44 ± 7.2 µM, the kcat [3] was 0.467 ± 0.03 s⁻¹ and the Km [4] was 11.5 ± 3.3 µM. The kcat [4] was 0.05 ± 0.0033 s⁻¹.
With PnC_KS-AT (Streptomyces platensis) the Km [5] was 6.2 ± 1.4 µM, the kcat [5] was 0.0117 ± 0.000667 s⁻¹ and the kcat/Km [5] was 1830 M⁻¹ s⁻¹. The Km [6] was 53 ± 41 µM, the kcat [6] was 0.01 ± 0.0025 s⁻¹ and the kcat/Km [6] was 167 M⁻¹ s⁻¹. For the same substance, the Km [7] was 73 ± 33 µM, the kcat [7] was 0.0233 ± 0.005 s⁻¹ and the kcat/Km [7] was 333 M⁻¹ s⁻¹. It also gave a Km [8] of 6 ± 1.8 µM, a kcat [8] of 0.015 ± 0.001 s⁻¹ and a kcat/Km [8] of 2500 M⁻¹ s⁻¹. It also gave a Km [9] of 20 ± 6.7 µM, a kcat [9] of 0.0133 ± 0.00133 s⁻¹ and a kcat/Km [9] of 667 M⁻¹ s⁻¹. It also gave a Km [10] of 19 ± 15.5 µM, a kcat [10] of 0.00667 ± 0.00133 s⁻¹ and a kcat/Km [10] of 333 M⁻¹ s⁻¹.
PnB_KS-AT2 (Streptomyces platensis) gave a Km [11] of 16 ± 1.7 µM, a kcat [11] of 1.23 ± 0.0333 s⁻¹ and a Km [12] of 5.2 ± 0.8 µM. The kcat [12] was 0.05 ± 0.00233 s⁻¹.
